# From PMC10570035
# Like-named read-outs stand apart in the source and are kept apart here.
# Experiments:
# [1] = molecular target: 40S ribosomal subunit (rabbit reticulocyte lysate) (rabbit (endogenous in rabbit reticulocyte lysate)) (UniProt G1TM55)
# [2] = molecular target: 40S ribosomal subunit (rabbit reticulocyte lysate) (rabbit (endogenous in rabbit reticulocyte lysate)) (UniProt G1TM55); remark: listed apart in the source
# [3] = molecular target: 40S ribosomal subunit (rabbit reticulocyte lysate) (rabbit (endogenous in rabbit reticulocyte lysate)) (UniProt G1TM55); remark: listed apart in the source
# [4] = molecular target: 40S ribosomal subunit (rabbit reticulocyte lysate) (rabbit (endogenous in rabbit reticulocyte lysate)) (UniProt G1TM55); remark: listed apart in the source
substance,measurement,setting,value
MBP-eIF2A-His6 (from UniProt Q9BY44-1 1-585) (natural protein),"in vitro translation of nLuc mRNA in 20% RRL, titration of recombinant protein (0-3.4 μM); IC50 of inhibition of translation",[1],190 nM
MBP-eIF2A-His6-FLAG (from UniProt Q9BY44-1 1-585) (natural protein),"in vitro translation of CrPV IGR IRES nLuc mRNA in RRL, titration (0-3.4 μM); IC50 of inhibition of translation",[2],630 nM
same,"in vitro translation of EMCV IRES nLuc mRNA in RRL, titration (0-3.4 μM); IC50 of inhibition of translation",[2],690 nM
same,"in vitro translation of HCV IRES nLuc mRNA in RRL, titration (0-3.4 μM); IC50 of inhibition of translation",[2],490 nM
same,"in vitro translation of PV IRES nLuc mRNA in RRL, titration (0-3.4 μM); IC50 of inhibition of translation",[2],840 nM
same,"in vitro translation of nLuc mRNA in 20% RRL, titration of recombinant protein (0-3.4 μM); IC50 of inhibition of translation",[3],370 nM
tag-less eIF2A (from UniProt Q9BY44-1 1-585) (natural protein),"in vitro translation of nLuc mRNA in 20% RRL, titration of recombinant protein (0-3.4 μM); IC50 of inhibition of translation",[4],130 nM
